Measured values from patent publication US20220281969A1 (ANTLERA THERAPEUTICS, published 2022).

How the values were obtained:
[1] = target: T1, recombinant human LRP6-Fc chimera (human, UniProt O75581 20-1370); assay: multipoint competitive ELISA; human LRP6-Fc chimera titrated against OD450 of the IgG1; non-linear regression
T1 construct: extracellular domain; also called human LRP6 chimera; not shown: Fc part of the chimera
T1 sequence (looked up): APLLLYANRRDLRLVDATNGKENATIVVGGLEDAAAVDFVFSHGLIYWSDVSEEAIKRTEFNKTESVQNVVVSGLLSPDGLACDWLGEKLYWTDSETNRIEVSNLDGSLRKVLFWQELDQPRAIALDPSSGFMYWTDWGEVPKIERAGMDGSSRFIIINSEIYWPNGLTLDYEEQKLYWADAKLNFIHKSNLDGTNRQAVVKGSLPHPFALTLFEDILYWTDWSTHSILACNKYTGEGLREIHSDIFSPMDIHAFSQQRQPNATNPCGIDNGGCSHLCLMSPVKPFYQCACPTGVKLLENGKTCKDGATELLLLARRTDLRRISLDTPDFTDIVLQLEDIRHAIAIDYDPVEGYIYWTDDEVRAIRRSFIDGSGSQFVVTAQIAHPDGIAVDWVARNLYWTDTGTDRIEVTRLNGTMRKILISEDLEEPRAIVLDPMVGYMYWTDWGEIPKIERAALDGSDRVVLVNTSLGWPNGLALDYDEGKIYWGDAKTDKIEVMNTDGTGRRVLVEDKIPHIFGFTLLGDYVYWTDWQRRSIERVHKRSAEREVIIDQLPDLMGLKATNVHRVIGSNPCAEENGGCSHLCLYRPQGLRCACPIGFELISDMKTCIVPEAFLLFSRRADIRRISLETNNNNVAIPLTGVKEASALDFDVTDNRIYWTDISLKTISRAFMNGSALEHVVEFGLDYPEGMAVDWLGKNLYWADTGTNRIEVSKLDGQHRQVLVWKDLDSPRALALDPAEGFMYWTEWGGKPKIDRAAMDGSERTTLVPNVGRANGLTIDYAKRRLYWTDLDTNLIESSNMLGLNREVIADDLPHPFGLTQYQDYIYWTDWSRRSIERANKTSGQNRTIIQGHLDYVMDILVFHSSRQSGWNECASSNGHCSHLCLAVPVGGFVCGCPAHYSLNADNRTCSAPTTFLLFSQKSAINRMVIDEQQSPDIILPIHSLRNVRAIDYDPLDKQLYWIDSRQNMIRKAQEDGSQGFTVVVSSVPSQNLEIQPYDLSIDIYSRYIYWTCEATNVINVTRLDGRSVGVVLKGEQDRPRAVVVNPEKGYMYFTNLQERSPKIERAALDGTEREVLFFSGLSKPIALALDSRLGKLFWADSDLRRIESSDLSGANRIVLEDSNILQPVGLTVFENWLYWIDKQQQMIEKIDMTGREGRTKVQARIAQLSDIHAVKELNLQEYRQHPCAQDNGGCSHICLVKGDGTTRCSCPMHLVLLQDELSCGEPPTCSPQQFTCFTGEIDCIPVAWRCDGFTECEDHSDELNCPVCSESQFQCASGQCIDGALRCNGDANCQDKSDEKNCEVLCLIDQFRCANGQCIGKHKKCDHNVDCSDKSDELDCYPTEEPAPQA
Procedure: (§1) The full length IgG1s were purified and a single-point ELISA was done to determine the specificity of the antibodies. […] A multipoint competitive ELISA was used to determine the relative affinities of the antibodies to the recombinant antigen.
Table 3 reports the IC50 of LRP6 antibodies as determined by competitive ELISA. The log of the recombinant human LRP6-Fc chimera concentration (x-axis) was plotted against the OD450 reading of the antibody (y-axis). The IC50 was determined by non-linear regression analysis.

[2] = target: T2, recombinant mouse LRP5-His chimera (mouse, UniProt Q91VN0 31-1383); assay: single-point ELISA, IgG1 on coated antigen
T2 construct: extracellular domain; not shown: His tag
T2 sequence (looked up): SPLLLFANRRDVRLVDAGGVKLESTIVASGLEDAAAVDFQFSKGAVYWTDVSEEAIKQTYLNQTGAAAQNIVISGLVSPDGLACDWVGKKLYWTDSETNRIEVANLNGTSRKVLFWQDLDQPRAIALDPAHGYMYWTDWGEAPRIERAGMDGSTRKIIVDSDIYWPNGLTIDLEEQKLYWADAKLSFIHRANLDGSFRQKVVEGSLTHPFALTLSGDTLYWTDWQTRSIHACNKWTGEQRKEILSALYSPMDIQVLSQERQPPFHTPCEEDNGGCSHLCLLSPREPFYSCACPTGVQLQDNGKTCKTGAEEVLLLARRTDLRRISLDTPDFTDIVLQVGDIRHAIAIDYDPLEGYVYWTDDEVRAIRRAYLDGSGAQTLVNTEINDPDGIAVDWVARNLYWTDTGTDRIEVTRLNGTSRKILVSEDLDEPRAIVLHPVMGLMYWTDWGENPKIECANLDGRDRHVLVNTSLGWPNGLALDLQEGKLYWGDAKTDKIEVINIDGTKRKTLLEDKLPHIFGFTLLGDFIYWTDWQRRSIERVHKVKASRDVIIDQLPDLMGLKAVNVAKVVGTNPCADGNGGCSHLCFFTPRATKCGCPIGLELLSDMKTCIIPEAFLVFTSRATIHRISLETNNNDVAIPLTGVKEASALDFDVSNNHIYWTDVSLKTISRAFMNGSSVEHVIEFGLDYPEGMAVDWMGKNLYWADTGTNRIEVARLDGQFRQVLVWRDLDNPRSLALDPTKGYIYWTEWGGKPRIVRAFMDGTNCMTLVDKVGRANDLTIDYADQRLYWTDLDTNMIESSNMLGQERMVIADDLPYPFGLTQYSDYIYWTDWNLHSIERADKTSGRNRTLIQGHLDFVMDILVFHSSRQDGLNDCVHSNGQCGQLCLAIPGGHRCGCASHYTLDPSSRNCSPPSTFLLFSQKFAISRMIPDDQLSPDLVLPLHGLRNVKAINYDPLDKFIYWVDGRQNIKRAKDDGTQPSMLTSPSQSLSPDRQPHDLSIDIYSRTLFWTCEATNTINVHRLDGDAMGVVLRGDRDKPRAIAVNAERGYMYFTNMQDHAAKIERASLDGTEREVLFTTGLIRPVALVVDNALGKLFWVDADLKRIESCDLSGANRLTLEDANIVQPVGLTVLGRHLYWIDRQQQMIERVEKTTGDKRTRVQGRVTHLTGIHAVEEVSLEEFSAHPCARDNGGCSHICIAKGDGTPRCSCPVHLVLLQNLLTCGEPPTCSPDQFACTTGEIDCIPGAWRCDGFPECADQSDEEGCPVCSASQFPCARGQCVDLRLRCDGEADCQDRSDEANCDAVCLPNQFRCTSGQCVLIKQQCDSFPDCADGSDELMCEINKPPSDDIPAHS
Procedure: FIGS. 1a and 1b show LRP six antibodies. (A) The amino acid sequences of the complementarity determining regions (CDR) of the heavy (H) and the light (L) chains are presented. The antibodies were grouped into unique epitopes as determined by competitive ELISAs. (B) Single-point ELISAs were performed on 96-well Maxisorb immune plates coated with the […] of mouse LRP5, mouse LRP6 and human LRP6 chimeras. The plates were incubated with the purified Fab or IgG1 at the concentrations indicated followed by incubation with horseradish peroxidase (HRP)-conjugated anti-kappa antibody. The wells were washed eight times followed by incubation with 3,3′,5,5′-tetramethylbenzidine/H₂O₂ peroxidase (TMB) substrate for 5-10 min. The reaction was stopped by adding one M H₃PO₄ and the absorbance was measured spectrometrically at 450 nm in a microtiter plate reader.
as §1

[3] = target: full-length LRP6 receptor expressed on the surface of cell lines (UniProt O75581 20-1613, limits assumed); assay: cell-based or functional assay

Binder | IC50 [1] [nM] | binding result [2] | functional IC50, Wnt3aCM-stimulated TOPflash reporter activity (MDAMB231, U2OS, H23 cells) [3] [nM] | functional IC50, Wnt3aCM-stimulated TOPflash reporter activity (MDAMB231 cells) [3] [nM]
LRP6-G3 IgG1 antibody (antibody, V domains shown, Tested as purified full length IgG1) VH: EVQLVESGGGLVQPGGSLRLSCAASGFNISSYYIHWVRQAPGKGLEWVASIYSSYGYTSYADSVKGRFTISADTSKNTAYLQMNSLRAEDTAVYYCARTVRGSKKPYFSGWAMDYWGQGTLVTVSS VL: DIQMTQSPSSLSASVGDRVTITCRASQSVSSAVAWYQQKPGKAPKLLIYSASSLYSGVPSRFSGSRSGTDFTLTISSLQPEDFATYYCQQYYWPITFGQGTKVEIKR | 10.2 | no binding | – | –
LRP6-G9 IgG1 antibody (antibody, V domains shown, Tested as purified full length IgG1) VH: EVQLVESGGGLVQPGGSLRLSCAASGFNIYSYYIHWVRQAPGKGLEWVASIYSSYSYTSYADSVKGRFTISADTSKNTAYLQMNSLRAEDTAVYYCARTVRGSKKPYFSGWAMDYWGQGTLVTVSS VL: DIQMTQSPSSLSASVGDRVTITCRASQSVSSAVAWYQQKPGKAPKLLIYSASSLYSGVPSRFSGSRSGTDFTLTISSLQPEDFATYYCQQYYWPITFGQGTKVEIKR | 6.03 | no binding | – | –
LRP6-A1 IgG1 antibody (antibody, V domains shown, Tested as purified full length IgG1; Synthetic antibody on a human framework, detected with anti-kappa antibody) VH: EVQLVESGGGLVQPGGSLRLSCAASGFNLSYYYIHWVRQAPGKGLEWVASIYSSYGYTSYADSVKGRFTISADTSKNTAYLQMNSLRAEDTAVYYCARTVRGSKKPYFSGWAMDYWGQGTLVTVSS VL: DIQMTQSPSSLSASVGDRVTITCRASQSVSSAVAWYQQKPGKAPKLLIYSASSLYSGVPSRFSGSRSGTDFTLTISSLQPEDFATYYCQQYYWPITFGQGTKVEIKR | 9.58 | no binding | – | –
LRP6-A10 IgG1 antibody (antibody, V domains shown, Tested as purified full length IgG1) VH: EVQLVESGGGLVQPGGSLRLSCAASGFNISYSSIHWVRQAPGKGLEWVAYISSYYGYTYYADSVKGRFTISADTSKNTAYLQMNSLRAEDTAVYYCARAHYFPWAGAMDYWGQGTLVTVSS VL: DIQMTQSPSSLSASVGDRVTITCRASQSVSSAVAWYQQKPGKAPKLLIYSASSLYSGVPSRFSGSRSGTDFTLTISSLQPEDFATYYCQQYSWGPFTFGQGTKVEIKR | 6.29 | no binding | < 0.3 | –
LRP6-A10 Fab protein (Fab, V domains shown) VH: EVQLVESGGGLVQPGGSLRLSCAASGFNISYSSIHWVRQAPGKGLEWVAYISSYYGYTYYADSVKGRFTISADTSKNTAYLQMNSLRAEDTAVYYCARAHYFPWAGAMDYWGQGTLVTVSS VL: DIQMTQSPSSLSASVGDRVTITCRASQSVSSAVAWYQQKPGKAPKLLIYSASSLYSGVPSRFSGSRSGTDFTLTISSLQPEDFATYYCQQYSWGPFTFGQGTKVEIKR | – | – | – | < 0.3
LRP6-B6 IgG1 antibody (antibody, V domains shown, Tested as purified full length IgG1) VH: EVQLVESGGGLVQPGGSLRLSCAASGFNISYSSIHWVRQAPGKGLEWVASISPYYGYTYYADSVKGRFTISADTSKNTAYLQMNSLRAEDTAVYYCARSSYFPWFSAMDYWGQGTLVTVSS VL: DIQMTQSPSSLSASVGDRVTITCRASQSVSSAVAWYQQKPGKAPKLLIYSASSLYSGVPSRFSGSRSGTDFTLTISSLQPEDFATYYCQQYYFLITFGQGTKVEIKR | – | no binding | – | –
